Laboratory results taken from patent US20120039865A1, “IDENTIFICATION OF SORTILIN AS A NEURONAL RECEPTOR FOR THE FRONTOTEMPORAL DEMENTIA PROTEIN, PROGRANULIN” (Yale University, priority 2008, published 2012).
Entries after “also recorded” stand apart in the source; their conditions may differ.

Legend:
[1] = biological target: Rat (Sprague-Dawley) cortical neurons; experiment: AP-tagged ligand binding to cultured rat cortical neurons; details: saturation analysis, FIG. 1D; read-out: affinity of neuronal binding sites for PGRN
Description: (§1) Rat (Sprague-Dawley) cortical neurons were isolated from E18 embryos and cultured in vitro for 3-21 days. Cultures were maintained in Neurobasal-A medium supplemented with B27, GLUTAMAX™ (2 mM), sodium pyruvate (1 mM), penicillin, and streptomycin. The binding of 10 nM AP-PGRN or 10 nM AP was detected as a dark reaction product produced by alkaline phosphatase (AP). Binding was measured as follows. The AP tagged ligand (in NBA) was incubated with the cortical neurons for 1 hr at 4° C., washed three times with HBH buffer, fixed with formaldehyde, and after washing again with HBH the neurons were incubated in a 67° C. oven to inactivate the endogenous AP. The tagged AP was then visualized using AP substrate 5-bromo-4-chloro-3-indolyl phosphate/nitro blue tetrazolium, which results in a dark precipitate. […] The addition of 100 nM Flag-PGRN displaced 10 nM AP-PGRN (FIG. 1C, middle panel).

[2] = system: mouse E17 cortical neurons; experiment: AP-PGRN binding to mouse cortical neurons (wild type, sortilin +/- and -/-); details: 100 nM unlabeled competitor against 5 nM AP-PGRN, 1 hr preincubation
Description: as §1
Binding was measured according to the methods described above by preincubating 100 nM PGRN with the cortical neurons for 1 hr and using a 5 nM AP-PGRN and 100 nM untagged PGRN mixture. […]
Gene-targeted sortilin −/− and +/− mice from Anders Nykjaer, M.D., Ph.D., Aarhus University, Aarhus, Denmark, were used to obtain cultures of cortical neurons. The binding of 2 nM AP-PGRN to cortical neurons isolated from sortilin −/− (FIG. 3B, left panel) and +/− (FIG. 3B, right panel) mice was evaluated. […]

[3] = biological target: T1, sortilin-1 (Sort1; PGRN-R) (Mus musculus, UniProt Q6PHU5); experiment: AP-PGRN binding to COS-7 cells transfected with Sort1 cDNA
T1 construct: host or cells: COS-7 (ATCC No. CRL-1651)
T1 sequence (Q6PHU5 74-825): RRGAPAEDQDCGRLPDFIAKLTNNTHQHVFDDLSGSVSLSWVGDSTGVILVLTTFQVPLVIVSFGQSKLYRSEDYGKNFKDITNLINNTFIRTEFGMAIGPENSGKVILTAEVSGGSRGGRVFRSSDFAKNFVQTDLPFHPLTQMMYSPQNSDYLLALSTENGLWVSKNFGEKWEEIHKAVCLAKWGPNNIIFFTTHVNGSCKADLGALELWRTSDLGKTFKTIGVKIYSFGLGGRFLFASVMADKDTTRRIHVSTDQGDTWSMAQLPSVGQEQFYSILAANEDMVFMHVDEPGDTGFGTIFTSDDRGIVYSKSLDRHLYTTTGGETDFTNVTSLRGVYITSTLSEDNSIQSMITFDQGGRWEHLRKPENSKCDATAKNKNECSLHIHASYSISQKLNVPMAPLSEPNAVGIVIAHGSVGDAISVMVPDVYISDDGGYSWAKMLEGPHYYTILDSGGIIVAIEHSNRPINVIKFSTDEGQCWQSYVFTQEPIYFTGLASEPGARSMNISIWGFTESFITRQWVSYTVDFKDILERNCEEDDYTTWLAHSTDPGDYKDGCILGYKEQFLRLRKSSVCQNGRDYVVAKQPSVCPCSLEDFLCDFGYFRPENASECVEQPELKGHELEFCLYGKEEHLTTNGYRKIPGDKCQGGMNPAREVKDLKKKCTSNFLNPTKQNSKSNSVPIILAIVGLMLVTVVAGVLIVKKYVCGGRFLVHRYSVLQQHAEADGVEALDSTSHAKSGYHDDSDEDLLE
Description: as §1
To determine the molecular nature of the neuronal binding site of PGRN, expression cloning experiments utilizing AP-PGRN as a tagged ligand were conducted. COS-7 (ATCC No. CRL-1651) cells were transfected with expression vectors containing mouse cDNAs using FUGENE® 6 according to manufacturer's specifications (Roche). […]

[4] = system: cortical neurons from E18 rat embryo cerebral cortex; experiment: Apoptosis assay (cleaved caspase 3) in cortical neuron cultures; type: cell-based; details: 100 nM, 36 hours, vs vehicle; 7 days in vitro
Description: In order to examine the PGRN-Sort1 interaction and the effects of PGRN on cerebral cortical cultures, apoptosis assays were performed. Cultures of cortical neurons were established from E18 rat embryo cerebral cortex, as described above, and maintained for 7 days in vitro. Then, the cells were exposed to vehicle or 100 nM purified PGRN protein for 36 hours. The cultures were maintained as mentioned above, and Flag-PGRN diluted in PBS or PBS vehicle were incubated in the cultures for 36 h. Thereafter, the cells were fixed with FA 15 mts and stained with anti-cleaved caspase 3 antibody (Cell Signaling) to detect apoptotic cells (FIG. 6A; shown in white) and with DAPI to detect all nuclei (FIG. 6A; shown in gray). […] These finding may relate indirectly to one study of immortalized cells linking PGRN to caspase-mediated cleavage of TDP43 (Zhang, Y. J., et al., J. Neurosci. 27:10530-10534 (2007)).

[5] = system: Cortical neurons isolated from E18 rat embryos; experiment: Neurite outgrowth assay in cortical neurons; type: cell-based; details: 100 nM, 1 day in vitro, vs vehicle
Description: To further examine the PGRN-Sort1 interaction, neurite outgrowth assays were performed. Cortical neurons were isolated from E18 rat embryos and cultured for 1 day in vitro with or without 100 nM purified Flag-PGRN protein, as described above. Neurites were then visualized with an anti-Beta III tubulin (Promega) using an automated image acquisition. Neurite outgrowth analysis was done using ImageXpress (Molecular Devices), and average neurite length was calculated. […] Although this finding differs from a recent report (Van Damme, P., et al., J. Cell Biol. 181:37-41 (2008)), it is possible that cell survival is the primary action of PGRN, and any outgrowth effect is secondary.

[6] = biological target: T2, sortilin (Homo sapiens, UniProt Q99523); experiment: PGRN binding to sortilin of human origin; details: data not shown
T2 sequence (Q99523 78-831): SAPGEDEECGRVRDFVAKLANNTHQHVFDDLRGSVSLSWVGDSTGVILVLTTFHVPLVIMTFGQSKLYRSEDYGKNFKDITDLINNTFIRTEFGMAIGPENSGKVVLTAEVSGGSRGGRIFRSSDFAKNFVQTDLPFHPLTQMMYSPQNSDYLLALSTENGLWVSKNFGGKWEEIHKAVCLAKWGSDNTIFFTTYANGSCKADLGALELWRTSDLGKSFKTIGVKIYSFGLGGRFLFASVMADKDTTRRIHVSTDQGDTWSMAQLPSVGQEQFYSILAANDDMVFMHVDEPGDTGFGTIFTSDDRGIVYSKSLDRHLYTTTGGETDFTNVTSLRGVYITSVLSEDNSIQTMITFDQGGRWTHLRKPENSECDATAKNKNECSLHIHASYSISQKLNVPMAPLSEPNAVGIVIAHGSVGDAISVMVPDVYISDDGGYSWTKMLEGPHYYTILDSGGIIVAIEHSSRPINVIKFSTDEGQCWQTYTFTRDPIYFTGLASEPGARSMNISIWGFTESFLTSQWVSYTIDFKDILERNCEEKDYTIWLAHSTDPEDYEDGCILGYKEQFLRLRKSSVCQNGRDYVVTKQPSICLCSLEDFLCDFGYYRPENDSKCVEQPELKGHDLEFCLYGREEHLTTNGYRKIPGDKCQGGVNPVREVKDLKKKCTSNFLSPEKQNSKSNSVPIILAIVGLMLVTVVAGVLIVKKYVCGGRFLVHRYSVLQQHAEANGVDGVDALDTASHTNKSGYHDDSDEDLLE
Source text: The human SorLA expression vector was provided by Anders Nykjaer, M.D., Ph.D., Aarhus University, Aarhus, Denmark (Jacobsen, L., et al., J. Biol. Chem. 276:22788-22796 (2001); Gliemann, J., et al., Biochem J. 381:203-212 (2004); GenBank Accession No. U60975), and the mouse SorCS1 expression vector in pCMV-Sport6 was obtained from Open Biosystems (GenBank Accession No. BC007486). […] A fragment of PGRN, termed PGRN-E in the literature, binds to sortilin with the same affinity as does full length PGRN (data not shown).

[7] = biological target: T3, Sort1 (Mus musculus, UniProt Q6PHU5); experiment: Affinity chromatography pull-down of Sort1 from brain lysate; type: binding; details: wild type brain lysate or extract
T3 construct: Brain lysate was prepared from mouse brain by homogenization in RIPA buffer; from tissue; host or cells: mouse brain lysate (RIPA buffer)
T3 sequence (Q6PHU5 74-825): T1 sequence (Q6PHU5 74-825)
Description: For affinity chromatography, glutathione S-transferase (GST) fused to the C-terminal segment of PGRN (amino acids 495 to the end) was produced in E. coli as a 45 kDa protein and then purified on glutathione-sepharose resin. Brain lysate was prepared from mouse brain by homogenization in RIPA buffer and then incubated with the GST-PGRN containing resin. After washing, bound protein was eluted with SDS and analyzed by anti-sortilin immunoblot. […] Thus, it can be unexpectedly concluded from these studies that PGRN and sortilin interact in a ligand/receptor-type complex on the cell surface.

B1: PGRN: progranulin protein; unlabeled/untagged competitor in binding assays, purified Flag-PGRN in Example 2 cultures (protein)
chain: TQCPDGQFCPVACCLDQGGANYSCCNPLLDTWPRITSHHLDGSCQTHGHCPAGYSCLLTVSGTSSCCPFSKGVSCGDGYHCCPQGFHCSADGKSCFQMSDNPLGAVQCPGSQFECPDSATCCIMVDGSWGCCPMPQASCCEDRVHCCPHGASCDLVHTRCVSPTGTHTLLKKFPAQKTNRAVSLPFSVVCPDAKTQCPDDSTCCELPTGKYGCCPMPNAICCSDHLHCCPQDTVCDLIQSKCLSKNYTTDLLTKLPGYPVKEVKCDMEVSCPEGYTCCRLNTGAWGCCPFAKAVCCEDHIHCCPAGFQCHTEKGTCEMGILQVPWMKKVIAPLRLPDPQILKSDTPCDDFTRCPTNNTCCKLNSGDWGCCPIPEAVCCSDNQHCCPQGFTCLAQGYCQKGDTMVAGLEKIPARQTTPLQIGDIGCDQHTSCPVGQTCCPSLKGSWACCQLPHAVCCEDRQHCCPAGYTCNVKARTCEKDVDFIQPPVLLTLGPKVGNVECGEGHFCHDNQTCCKDSAGVWACCPYLKGVCCRDGRHCCPGGFHCSARGTKCLRKKIPRWDMFLRDPVPRPLL
Kd [1]: ~20 nM | displacement of AP-PGRN binding [2]: displaced | displacement of AP-PGRN binding ([3]; 100 nM untagged competitor against 5 nM AP-PGRN): displaceable | binding to sortilin of mouse origin ([3]; data not shown): binds | number of cells positive for cleaved caspase-3 [4]: less | cortical neurite outgrowth (βIII tubulin) [5]: No PGRN-induced change; also recorded: no significant difference | binding to sortilin of human origin [6]: binds

B2: GST-PGRN: glutathione S-transferase (GST) fused to the C-terminal segment of PGRN (amino acids 495 to the end), produced in E. coli (protein)
chain: CEKEVVSAQPATFLARSPHVGVKDVECGEGHFCHDNQTCCRDNRQGWACCPYRQGVCCADRRHCCPAGFRCAARGTKCLRREAPRWDAPLRDPALRQLL
modifications: left off: a dimerising Fc or GST
notes: glutathione S-transferase (GST) fused to the C-terminal segment of PGRN (amino acids 495 to the end), produced in E. coli
pull-down of Sort1 (anti-sortilin immunoblot) [7]: immunoreactive Sort1 band was detected
